From patent US6500669

Target: hUBF (upstream binding factor, RNA polymerase I transcription factor) (Homo sapiens) (UniProt P17480)
Test: footprint
Conditions: apparent Kd, half-maximal binding; cooperative, Hill 2.7; 14 mM MgCl2, 50 mM KCl, pH 7.9, 30 C

Chain of hUBF (upstream binding factor, RNA polymerase I transcription factor) (Homo sapiens) (P17480 whole entry): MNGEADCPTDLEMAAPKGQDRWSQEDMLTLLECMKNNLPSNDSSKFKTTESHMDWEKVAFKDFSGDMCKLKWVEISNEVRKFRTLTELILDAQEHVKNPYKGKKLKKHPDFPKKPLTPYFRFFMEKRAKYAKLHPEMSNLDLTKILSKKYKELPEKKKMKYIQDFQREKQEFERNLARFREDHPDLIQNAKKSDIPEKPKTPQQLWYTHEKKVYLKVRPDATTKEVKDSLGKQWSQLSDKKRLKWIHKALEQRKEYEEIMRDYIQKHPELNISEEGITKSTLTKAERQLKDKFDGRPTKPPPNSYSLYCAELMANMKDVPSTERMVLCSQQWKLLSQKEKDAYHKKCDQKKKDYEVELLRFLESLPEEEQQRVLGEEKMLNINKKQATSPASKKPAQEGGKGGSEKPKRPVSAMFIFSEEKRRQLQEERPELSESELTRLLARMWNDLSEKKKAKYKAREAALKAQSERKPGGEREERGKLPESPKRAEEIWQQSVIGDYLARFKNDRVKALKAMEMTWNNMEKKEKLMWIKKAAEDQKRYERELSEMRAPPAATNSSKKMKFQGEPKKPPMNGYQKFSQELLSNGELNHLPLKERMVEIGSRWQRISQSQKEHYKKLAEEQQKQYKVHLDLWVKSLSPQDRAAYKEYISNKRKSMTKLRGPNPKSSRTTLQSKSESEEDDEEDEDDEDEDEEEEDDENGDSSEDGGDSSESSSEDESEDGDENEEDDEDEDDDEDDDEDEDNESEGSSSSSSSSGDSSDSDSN

human rRNA gene promoter fragment -208 to +78 (EcoRI-BstEII of pSBr208)
Kd: 0.018 nM
